Laboratory results as given in patent publication US20190276511A1 (BIONTECH RNA PHARMACEUTICALS, published 2019).
Where two headings read alike, the source gives them in different places.

T1: OX40-Fc (human, UniProt P43489 29-214)
T1 construct: extracellular domain; hinge included for covalent assembly; also called OX40 receptor-Fc fusion protein; not shown: human Fc gamma 1 region including the hinge region
T1 sequence (looked up): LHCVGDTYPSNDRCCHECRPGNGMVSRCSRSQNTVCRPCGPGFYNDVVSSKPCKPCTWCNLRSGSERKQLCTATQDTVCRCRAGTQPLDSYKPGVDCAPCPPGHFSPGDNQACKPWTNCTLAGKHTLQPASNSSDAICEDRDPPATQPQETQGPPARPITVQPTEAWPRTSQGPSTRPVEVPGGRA

T2: OX40 receptor on cells (human, UniProt P43489 29-277)
T2 sequence (looked up): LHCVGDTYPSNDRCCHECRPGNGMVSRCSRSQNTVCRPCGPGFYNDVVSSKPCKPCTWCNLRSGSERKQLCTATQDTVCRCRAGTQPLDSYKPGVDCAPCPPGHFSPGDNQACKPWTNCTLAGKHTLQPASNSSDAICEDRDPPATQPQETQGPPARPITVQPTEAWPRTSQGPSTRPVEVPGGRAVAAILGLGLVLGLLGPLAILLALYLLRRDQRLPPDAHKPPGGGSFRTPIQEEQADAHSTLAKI

T3: CD27-Fc (human, UniProt P26842 20-191)
T3 construct: extracellular domain; hinge included for covalent assembly; also called CD27 receptor-Fc fusion protein; not shown: human Fc gamma 1 region including the hinge region
T3 sequence (looked up): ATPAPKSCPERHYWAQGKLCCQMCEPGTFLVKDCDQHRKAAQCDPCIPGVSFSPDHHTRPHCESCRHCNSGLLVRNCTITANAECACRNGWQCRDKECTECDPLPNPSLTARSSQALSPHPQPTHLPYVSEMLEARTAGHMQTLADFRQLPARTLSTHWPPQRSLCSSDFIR


What was measured:
4-1BB-Fc [1] = molecular target: T4, 4-1BB-Fc (human, UniProt Q07011 24-186); experiment: ELISA, coated receptor-Fc
T4 construct: extracellular domain; hinge included for covalent assembly; also called 4-1BB receptor-Fc fusion protein; not shown: human Fc gamma 1 region including the hinge region
Experimental: (§1) Receptor binding of the Duokines was analyzed by ELISA using fusion proteins of the extracellular region of CD40, CD27, 4-1BB and OX40, respectively, with the human Fcγ1 region including the hinge region for covalent assembly (CD40-Fc, CD27-Fc, 4-1BB-Fc, OX40-Fc). Receptor-Fc fusion proteins (200 ng/well) were coated overnight at 4° C. and remaining binding sites were blocked with PBS, 2% skimmed milk powder (2% MPBS).

OX40-Fc [2] = molecular target: T1, OX40-Fc; experiment: ELISA, coated receptor-Fc
Experimental: as §1

OX40 receptor on cells = molecular target: T2, OX40 receptor on cells; experiment: cell-based or functional assay
4-1BB receptor on cells [3] = molecular target: T5, 4-1BB receptor on cells (human, UniProt Q07011 24-255); experiment: cell-based or functional assay
T5 sequence (Q07011 24-255): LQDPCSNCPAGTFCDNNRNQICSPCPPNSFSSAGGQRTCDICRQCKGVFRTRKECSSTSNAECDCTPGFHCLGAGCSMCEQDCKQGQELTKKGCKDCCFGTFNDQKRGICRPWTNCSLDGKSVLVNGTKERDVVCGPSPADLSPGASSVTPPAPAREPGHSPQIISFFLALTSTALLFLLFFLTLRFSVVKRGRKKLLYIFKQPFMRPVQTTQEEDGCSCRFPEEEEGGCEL

CD27-Fc [4] = molecular target: T3, CD27-Fc; experiment: ELISA, coated receptor-Fc
CD40-Fc [5] = molecular target: T6, CD40-Fc (human, UniProt P25942 21-193); experiment: ELISA, coated receptor-Fc
T6 construct: extracellular domain; hinge included for covalent assembly; also called CD40 receptor-Fc fusion protein; not shown: human Fc gamma 1 region including the hinge region
T6 sequence (P25942 21-193 limits assumed): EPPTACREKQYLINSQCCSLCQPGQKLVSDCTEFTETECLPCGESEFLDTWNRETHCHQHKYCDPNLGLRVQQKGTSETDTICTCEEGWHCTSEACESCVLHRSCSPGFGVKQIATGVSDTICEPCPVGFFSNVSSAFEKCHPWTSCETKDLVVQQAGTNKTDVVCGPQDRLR

CD40 receptor on cells [6] = molecular target: T7, CD40 receptor on cells (human, UniProt P25942 21-277); experiment: cell-based or functional assay
T7 sequence (P25942 21-277): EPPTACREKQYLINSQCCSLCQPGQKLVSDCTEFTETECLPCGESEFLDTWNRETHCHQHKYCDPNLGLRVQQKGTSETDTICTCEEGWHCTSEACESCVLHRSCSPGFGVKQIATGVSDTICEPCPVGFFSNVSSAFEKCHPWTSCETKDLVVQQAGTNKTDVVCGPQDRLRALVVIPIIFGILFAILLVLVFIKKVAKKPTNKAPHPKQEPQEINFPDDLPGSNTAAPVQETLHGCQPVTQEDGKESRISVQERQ

4-1BB receptor on cells [7] = molecular target: T5, 4-1BB receptor on cells; experiment: cell-based or functional assay; remark: listed apart in the source
OX40-Fc [8] = molecular target: T1, OX40-Fc; experiment: ELISA, coated receptor-Fc; remark: listed apart in the source
4-1BB-Fc [9] = molecular target: T4, 4-1BB-Fc; experiment: ELISA, coated receptor-Fc; remark: listed apart in the source
Experimental: as §1, with “of the single-chain Duokines was” for “of the Duokines was”, “(2% MPBS). […] The interactions between scDuokine and receptor were dose-dependent with EC₅₀ values in the low nanomolar ranges (FIG. 11 AB, Tab. 2).” for “(2% MPBS).”

CD40-Fc [10] = molecular target: T6, CD40-Fc; experiment: ELISA, coated receptor-Fc; remark: listed apart in the source
Experimental: as §1, with “of the single-chain Duokines was” for “of the Duokines was”, “(2% MPBS). […] The interactions between scDuokine and receptor were dose-dependent with EC₅₀ values in the low nanomolar ranges (FIG. 11 AB, Tab. 2).” for “(2% MPBS).”

CD27-Fc [11] = molecular target: T3, CD27-Fc; experiment: ELISA, coated receptor-Fc; remark: listed apart in the source
Experimental: as §1, with “of the single-chain Duokines was” for “of the Duokines was”, “(2% MPBS). […] The interactions between scDuokine and receptor were dose-dependent with EC₅₀ values in the low nanomolar ranges (FIG. 11 AB, Tab. 2).” for “(2% MPBS).”

CD40-Fc [12] = molecular target: T6, CD40-Fc; experiment: ELISA, coated receptor-Fc; remark: listed apart in the source
Experimental: as §1

CD40 receptor on cells [13] = molecular target: T7, CD40 receptor on cells; experiment: cell-based or functional assay; remark: listed apart in the source
CD27-Fc [14] = molecular target: T3, CD27-Fc; experiment: ELISA, coated receptor-Fc; remark: listed apart in the source
Experimental: as §1

Binder	EC50 (4-1BB-Fc [1]) [nM]	EC50 (OX40-Fc [2]) [nM]	Receptor activation (EC50, nM) (OX40 receptor on cells) [nM]	Receptor activation (EC50, nM) (4-1BB receptor on cells [3]) [nM]	binding result (CD27-Fc [4])	binding result (CD40-Fc [5])	Receptor activation (EC50, nM) (CD40 receptor on cells [6]) [nM]	Receptor activation (EC50, nM) (4-1BB receptor on cells [7]) [nM]	binding result (OX40-Fc [8])	EC50 (4-1BB-Fc [9]) [nM]	EC50 (CD40-Fc [10]) [nM]	EC50 (CD27-Fc [11]) [nM]	EC50 (CD40-Fc [12]) [nM]	Receptor activation (EC50, nM) (CD40 receptor on cells [13]) [nM]	EC50 (CD27-Fc [14]) [nM]
OX40L-4-1BBL (ligand, Duokine from HEK293, FLAG-purified; VH leader left out; homotrimer by SEC; also called Duokine OX40L-4-1BBL; not shown: N-terminal FLAG tag) QVSHRYPRIQSIKVQFTEYKKEKGFILTSQKEDEIMKVQNNSVIINCDGFYLISLKGYFSQEVNISLHYQKDEEPLFQLKKVRSVNSLMVASLTYKDKVYLNVTTDNTSLDDFHVNGGELILIHQNPGEFCVLGGGGSGGGGSGGGGSGGGGSREGPELSPDDPAGLLDLRQGMFAQLVAQNVLLIDGPLSWYSDPGLAGVSLTGGLSYKEDTKELVVAKAGVYYVFFQLELRRVVAGEGSGSVSLALHLQPLRSAAGAAALALTVDLPPASSEARNSAFGFQGRLLHLSAGQRLGVHLHTEARARHAWQLTQGATVLGLFRVTPEIPAGLPSPRSE	1.26	7.17	0.85	2.75	no binding (tested: 100 nM (FIG. 4))	no binding (tested: 100 nM (FIG. 4))	–	–	–	–	–	–	–	–	–
scCD40L-sc4-1BBL (ligand, scDuokine from HEK293; VH leader left out; also called single-chain Duokine scCD40L-sc4-1BBL; not shown: N-terminal FLAG tag) GDQNPQIAAHVISEASSKTTSVLQWAEKGYYTMSNNLVTLENGKQLTVKRQGLYYIYAQVTFCSNREASSQAPFIASLCLKSPGRFERILLRAANTHSSAKPCGQQSIHLGGVFELQPGASVFVNVTDPSQVSHGTGFTSFGLLKLGGGSGGGGDQNPQIAAHVISEASSKTTSVLQWAEKGYYTMSNNLVTLENGKQLTVKRQGLYYIYAQVTFCSNREASSQAPFIASLCLKSPGRFERILLRAANTHSSAKPCGQQSIHLGGVFELQPGASVFVNVTDPSQVSHGTGFTSFGLLKLGGGSGGGGDQNPQIAAHVISEASSKTTSVLQWAEKGYYTMSNNLVTLENGKQLTVKRQGLYYIYAQVTFCSNREASSQAPFIASLCLKSPGRFERILLRAANTHSSAKPCGQQSIHLGGVFELQPGASVFVNVTDPSQVSHGTGFTSFGLLKLGGGGSGGGTGGGGSREGPELSPDDPAGLLDLRQGMFAQLVAQNVLLIDGPLSWYSDPGLAGVSLTGGLSYKEDTKELVVAKAGVYYVFFQLELRRVVAGEGSGSVSLALHLQPLRSAAGAAALALTVDLPPASSEARNSAFGFQGRLLHLSAGQRLGVHLHTEARARHAWQLTQGATVLGLFRVTPEIPAGLPSPRSEGGGGSGGGGSGGGGSREGPELSPDDPAGLLDLRQGMFAQLVAQNVLLIDGPLSWYSDPGLAGVSLTGGLSYKEDTKELVVAKAGVYYVFFQLELRRVVAGEGSGSVSLALHLQPLRSAAGAAALALTVDLPPASSEARNSAFGFQGRLLHLSAGQRLGVHLHTEARARHAWQLTQGATVLGLFRVTPEIPAGLPSPRSEGGGGSGGGGSGGGGSREGPELSPDDPAGLLDLRQGMFAQLVAQNVLLIDGPLSWYSDPGLAGVSLTGGLSYKEDTKELVVAKAGVYYVFFQLELRRVVAGEGSGSVSLALHLQPLRSAAGAAALALTVDLPPASSEARNSAFGFQGRLLHLSAGQRLGVHLHTEARARHAWQLTQGATVLGLFRVTPEIPAGLPSPRSE	–	–	–	–	no binding (tested: 100 nM (FIG. 10))	–	5.23	0.26	no binding (tested: 100 nM (FIG. 10))	3.17	7.02	–	–	–	–
scCD27L-sc4-1BBL (ligand, scDuokine from HEK293; VH leader left out; also called single-chain Duokine scCD27L-sc4-1BBL; not shown: N-terminal FLAG tag) SLGWDVAELQLNHTGPQQDPRLYWQGGPALGRSFLHGPELDKGQLRIHRDGIYMVHIQVTLAICSSTTASRHHPTTLAVGICSPASRSISLLRLSFHQGCTIASQRLTPLARGDTLCTNLTGTLLPSRNTDETFFGVQWVRPGGGSGGGSLGWDVAELQLNHTGPQQDPRLYWQGGPALGRSFLHGPELDKGQLRIHRDGIYMVHIQVTLAICSSTTASRHHPTTLAVGICSPASRSISLLRLSFHQGCTIASQRLTPLARGDTLCTNLTGTLLPSRNTDETFFGVQWVRPGGGSGGGSLGWDVAELQLNHTGPQQDPRLYWQGGPALGRSFLHGPELDKGQLRIHRDGIYMVHIQVTLAICSSTTASRHHPTTLAVGICSPASRSISLLRLSFHQGCTIASQRLTPLARGDTLCTNLTGTLLPSRNTDETFFGVQWVRPGGGGSGGGTGGGGSREGPELSPDDPAGLLDLRQGMFAQLVAQNVLLIDGPLSWYSDPGLAGVSLTGGLSYKEDTKELVVAKAGVYYVFFQLELRRVVAGEGSGSVSLALHLQPLRSAAGAAALALTVDLPPASSEARNSAFGFQGRLLHLSAGQRLGVHLHTEARARHAWQLTQGATVLGLFRVTPEIPAGLPSPRSEGGGGSGGGGSGGGGSREGPELSPDDPAGLLDLRQGMFAQLVAQNVLLIDGPLSWYSDPGLAGVSLTGGLSYKEDTKELVVAKAGVYYVFFQLELRRVVAGEGSGSVSLALHLQPLRSAAGAAALALTVDLPPASSEARNSAFGFQGRLLHLSAGQRLGVHLHTEARARHAWQLTQGATVLGLFRVTPEIPAGLPSPRSEGGGGSGGGGSGGGGSREGPELSPDDPAGLLDLRQGMFAQLVAQNVLLIDGPLSWYSDPGLAGVSLTGGLSYKEDTKELVVAKAGVYYVFFQLELRRVVAGEGSGSVSLALHLQPLRSAAGAAALALTVDLPPASSEARNSAFGFQGRLLHLSAGQRLGVHLHTEARARHAWQLTQGATVLGLFRVTPEIPAGLPSPRSE	–	–	–	–	–	no binding (tested: 100 nM (FIG. 10))	–	1.5	no binding (tested: 100 nM (FIG. 10))	4.57	–	9.23	–	–	–
CD40L-4-1BBL (ligand, Duokine from HEK293, FLAG-purified; VH leader left out; homotrimer by SEC; also called Duokine CD40L-4-1BBL; not shown: N-terminal FLAG tag) GDQNPQIAAHVISEASSKTTSVLQWAEKGYYTMSNNLVTLENGKQLTVKRQGLYYIYAQVTFCSNREASSQAPFIASLCLKSPGRFERILLRAANTHSSAKPCGQQSIHLGGVFELQPGASVFVNVTDPSQVSHGTGFTSFGLLKLGGGGSGGGGSGGGGSGGGGSREGPELSPDDPAGLLDLRQGMFAQLVAQNVLLIDGPLSWYSDPGLAGVSLTGGLSYKEDTKELVVAKAGVYYVFFQLELRRVVAGEGSGSVSLALHLQPLRSAAGAAALALTVDLPPASSEARNSAFGFQGRLLHLSAGQRLGVHLHTEARARHAWQLTQGATVLGLFRVTPEIPAGLPSPRSE	2.11	–	–	0.45	no binding (tested: 100 nM (FIG. 4))	–	–	–	no binding (tested: 100 nM (FIG. 4))	–	–	–	10.1	3.01	–
CD27L-4-1BBL (ligand, Duokine from HEK293, FLAG-purified; VH leader left out; homotrimer by SEC; also called Duokine CD27L-4-1BBL; not shown: N-terminal FLAG tag) SLGWDVAELQLNHTGPQQDPRLYWQGGPALGRSFLHGPELDKGQLRIHRDGIYMVHIQVTLAICSSTTASRHHPTTLAVGICSPASRSISLLRLSFHQGCTIASQRLTPLARGDTLCTNLTGTLLPSRNTDETFFGVQWVRPGGGGSGGGGSGGGGSGGGGSREGPELSPDDPAGLLDLRQGMFAQLVAQNVLLIDGPLSWYSDPGLAGVSLTGGLSYKEDTKELVVAKAGVYYVFFQLELRRVVAGEGSGSVSLALHLQPLRSAAGAAALALTVDLPPASSEARNSAFGFQGRLLHLSAGQRLGVHLHTEARARHAWQLTQGATVLGLFRVTPEIPAGLPSPRSE	1.41	–	–	1.44	–	no binding (tested: 100 nM (FIG. 4))	–	–	no binding (tested: 100 nM (FIG. 4))	–	–	–	–	–	6.34
